Results from publication PMC3136439, “Auxin Response Factor2 (ARF2) and Its Regulated Homeodomain Gene HB33 Mediate Abscisic Acid Response in Arabidopsis”.
Numbering of substitutions follows the chain as printed.

T1: GST-ARF2 N-terminus (ARF2-N1-470, DNA-binding domain) (Arabidopsis thaliana, UniProt Q94JM3 1-470)
T1 sequence: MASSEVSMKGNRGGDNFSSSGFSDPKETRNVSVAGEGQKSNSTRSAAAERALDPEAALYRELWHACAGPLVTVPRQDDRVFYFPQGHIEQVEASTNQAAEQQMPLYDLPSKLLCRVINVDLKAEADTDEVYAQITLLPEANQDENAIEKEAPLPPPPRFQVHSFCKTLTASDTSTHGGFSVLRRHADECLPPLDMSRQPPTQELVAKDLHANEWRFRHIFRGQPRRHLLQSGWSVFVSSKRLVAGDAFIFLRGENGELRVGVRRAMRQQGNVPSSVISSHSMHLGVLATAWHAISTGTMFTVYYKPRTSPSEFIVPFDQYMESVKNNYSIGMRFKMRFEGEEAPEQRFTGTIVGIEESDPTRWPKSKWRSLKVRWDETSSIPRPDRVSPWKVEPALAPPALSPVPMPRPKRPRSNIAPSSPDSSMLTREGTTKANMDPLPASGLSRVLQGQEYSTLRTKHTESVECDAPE

B1: HB33 promoter probe (dsDNA)
DNA 1: CCAAATTGTCTCTTATAATCCGATCTCAAAGGTTGGCTTGTTGGGAGCACTGAGACATCAAAC
DNA 2: GTTTGATGTCTCAGTGCTCCCAACAAGCCAACCTTTGAGATCGGATTATAAGAGACAATTTGG
B2: HB33 promoter mProbe (mP) (dsDNA)
DNA 1: B1 DNA 1 with T9A, T11A, A53T, A55T
DNA 2: B1 DNA 2 with T9A, T11A, A53T, A55T

Target: T1, GST-ARF2 N-terminus (ARF2-N1-470, …)
Assay: EMSA; poly(dI-dC); EMSA: 5x buffer 50 mM HEPES-KOH pH 7.5, 375 mM KCl, 6.25 mM MgCl (so in the source), 1 mM DTT, 0.5 ug/mL BSA, 25% glycerol; 25 fmol probe, 6 ug protein, 1 ug poly(dI-dC) in 20 ul, room temperature 20 min; 6.5% native PAGE in TGE pH 8.3
Settings: protein: recombinant; tags: GST; chain copies: 2; blunt

Binder | binding result
B1 | binds
B2 | no binding
